# Assay results published in patent US20110059504A1 (GENERAL HOSPITAL, published 2011).
# Substitutions are numbered along the chain they refer to. Numbers in names are those of the source.
# T1: human myostatin (human, UniProt O14793 267-375, biotinylated in selections and radioactive assays (site not stated))
# T1 construct: Phage ELISA used both unbiotinylated and biotinylated myostatin; also called biotinylated human myostatin; myostatin-biotin
# T1 sequence (looked up): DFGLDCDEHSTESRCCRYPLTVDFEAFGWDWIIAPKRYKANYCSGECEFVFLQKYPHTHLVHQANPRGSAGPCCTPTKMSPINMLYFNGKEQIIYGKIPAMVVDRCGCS
# B1: 45927-A11 (designed binder)
# chain: MTIPEIIIKVRGTQVVGSDMTVIVEFTNPLKETLRNVWVHLDGPGVTRPMKKMFQKIPGCSTVQWEEVVRPWVSGHRKLIASMSMLGLPFSLRFIPVYGELDVQIQRRDYKDDDDK
# notes: group M1-Aext
# B2: 45927-B7 (M50T) (designed binder)
# chain: B1 chain with M50T, Q55L
# notes: group M1-Aext; M50T
# B3: 39973-B12 (designed binder)
# chain: MTIPEIIIKVRGTQVVGSDMTVIVEFKHDRYRYLQQVWVHLDGPGVTRPMKKMFKLIIFSYPVQWEEVVRPWVSGHRKLIASMRFMCPSHVYGELDVQIQRRDYKDDDDK
# notes: group M3-A
# B4: 45927-A10 (designed binder)
# chain: MTIPEIIIKVRGTQVVGSDMTVIVEFTNPKRDTSVWLRNVWVHLDGPGVTRPMKKMFFTIGYPSTVQWEEVVRPWVSGRRKLIASMSPSILSKGNIGLGVYGELDVQIQRRDYKDDDDK
# notes: group M3-Aext; H76R (wild type scaffold numbering)
# B5: 39908-E1 (designed binder)
# chain: MTIPEIIIKVRGTQVVGSDMTVIVEFTNLWKEALRNVWMHLDGPGVTRPMKKMFREIATMSTVQWEEVVRPWVSGHRKLIASMTLRPWHVYGELDVQIQRRDYKDDDDK
# notes: group M3-A50; FG loop -TLRPW; V39M; also called M04 (clone ID)
# B6: 39633-D6 (designed binder)
# chain: MTIPEIIIKVRGTQVVGSDMTVIVEFTNPFKETLRNVWVHLDGPGVTRPMKKMFCEIRPNSIVQWEEVVRPWVSGHRKLIARCSLSPWHVYGELDVQIQRRDYKDDDDK
# notes: group M3-A50; ΔS82, M83R; also called M020 (clone ID)
# B7: 39908-E5 (designed binder)
# chain: B6 chain with T27S, C55S, I62T
# notes: group M3-A50; ΔS82, M83R; also called M56 (clone ID)
# B8: 39908-B2 (designed binder)
# chain: B6 chain with N36S, C55R, R58P, N60K, S61T, I62T, S84Q, S86L
# notes: group M3-A50; ΔS82, M83R; also called M07 (clone ID)
# B9: 39633-A5 (V46I) (designed binder)
# chain: B6 chain with T27S, V46I, I57V
# notes: group M3-A50; ΔS82, M83R, V46I
# B10: 39908-C11 (designed binder)
# chain: B6 chain with T27S, C55S, P59T, S61A, I62T
# notes: group M3-A50; ΔS82, M83R; also called M22 (clone ID)
# B11: 39908-A7 (designed binder)
# chain: B6 chain with T27S, C83M, S84T, S86R
# notes: group M3-A50; ΔS82, M83R; also called M24 (clone ID)
# B12: 39908-C6 (designed binder)
# chain: B6 chain with N36S
# notes: group M3-A50; ΔS82, M83R; also called M05 (clone ID)
# B13: 39908-D2 (designed binder)
# chain: B6 chain with N36S, C55R, R58P, N60K, S61T, I62T
# notes: group M3-A50; ΔS82, M83R; also called M29 (clone ID)
# B14: 39908-A2 (designed binder)
# chain: B6 chain with C55R, E56D, N60K, S61T, I62K
# notes: group M3-A50; ΔS82, M83R; also called M03 (clone ID)
# B15: 39908-A1 (designed binder)
# chain: B6 chain with T27S
# notes: group M3-A50; ΔS82, M83R; also called M02 (clone ID)
# B16: 39633-G6 (designed binder)
# chain: B5 chain with L29P, W30F, A33T, N36S, M39V, A58P, T59P, M60K, S61T
# notes: group M3-A50; FG loop printed -TLRPW (one residue deleted), no scaffold mutation printed; also called M18 (clone ID)
# B17: 39908-A3 (designed binder)
# chain: B6 chain with N36S, S61R
# notes: group M3-A50; ΔS82, M83R; also called M09 (clone ID)
# B18: 39908-H4 (designed binder)
# chain: B6 chain with T27S, C55R, E56D, N60K, S61T, I62K, S84Q, S86L
# notes: group M3-A50; ΔS82, M83R; also called M015 (clone ID)
# B19: 39908-F5 (designed binder)
# chain: B6 chain with S84Q, S86L
# notes: group M3-A50; ΔS82, M83R; also called M16 (clone ID)
# B20: 45927-A12 (designed binder)
# chain: MTIPEIIIKVRGTQVVGSDMTVIVEFTNPLRVSEQTLRNVWVHLDGLGVTRPMKKMFGGIRVHSTVQWEEVVRPWVSGHRKLIASMSYVAEYGEWTHYSVYGELDVQIQRRDYKDDDDK
# notes: group M3-Aext
# B21: 45927-E1 (designed binder)
# chain: MTIPEIIIKVRGTQVVGSDMTVIVEFTNPLKETLRNVWVHLDGPGVTRPMKKMFTGILQWSTVQWEEVVRPWVSGHRKLIASMSPHAWWQHHGNFSVYGELDVQIQRRDYKDDDDK
# notes: group M2-Aext
# B22: 45927-E5 (designed binder)
# chain: MTIPEIIIKVRGTQVVGSDMTVIVEFTNPSNYRPCILRNVWVHLDGPGVTRPMKKMFKMIVYHSTVQWEEVVRPWVSGHRKLIASMSKFELSGTSSRGRVYGELDVQIQRRDYKDDDDK
# notes: group M3-Aext
# B23: 39973-G3 (designed binder)
# chain: MTIPEIIIKVRGTQVVGSDMTVIVEFTNPLKETLRNVWVHLDGPGVTRPMKKMFEQIRESEYVQWEEVVRPWVSGHRKLIASMLTETRPHVYGELDVQIQRRDYKDDDDK
# notes: group M3-A
# B24: 39633-G1 (designed binder)
# chain: MTIPEIIIKVRGTQVVGSDMTVIVEFSNPFKETLRNVWVHLDGPGVTRPMKKMFREIPPKTTVQWEEVVRPWVSGHRKLIASMRTQYLIHLYGELDVQIQRRDYKDDDDK
# notes: group M1-A50; V91L
# B25: 39633-F4 (designed binder)
# chain: B24 chain with R55C, P58R, K60N, T61S, T62I
# notes: group M1-A50; V91L
# B26: 39633-B3 (designed binder)
# chain: B24 chain with S27T, F30L, K31S, E32Q, R35S, N36A
# notes: group M1-A50; V91L
# B27: 39633-E2 (designed binder)
# chain: B24 chain with R55C, I57V, P58R, K60N, T61S, T62V
# notes: group M1-A50; V91L
# B28: 39633-F5 (I3Y, M83I) (designed binder)
# chain: B24 chain with I3Y, S27T, N36S, M83I
# notes: group M1-A50; V91L, I3Y, M83I
# B29: 39633-C5 (designed binder)
# chain: B24 chain with S27T, N36S, E56V
# notes: group M1-A50; V91L; also called M34 (clone ID)
# Biological target: T1, human myostatin
# Experiment: radioactive equilibrium binding assay
# Protocol: Affinities of selected F13β2 binders to biotinylated myostatin were determined in radioactive equilibrium binding assay (FIGS. 11A and 11B; Table 3). ³⁵S-labeled binder proteins from selection pools and single clones were produced in vitro in a rabbit reticulocyte lysate translation kit (Ambion) and purified on M2-agarose (Sigma). Varying concentrations of biotinylated human myostatin (0-100 nM) or other proteins (protein 1: 100 nM; peptide 1: 250 nM; protein 2: 50 nM) were incubated with a constant concentration of the purified binder protein (1 or 2 nM) at 30° C. for 30 min in buffer B (1×PBS, 0.02% Triton X-100 [pH 7.4]). The receptor-binder complexes were captured by using 25 μl of M280 or Protein A (Dynal) (protein 2) magnetic beads for 10 min at room temperature on a Kingfisher instrument (Thermo Fisher Scientific). The beads were washed five times with 100 μl buffer B, and the amount of ³⁵S-methionine remained on the beads was measured by scintillation counting. Data were analyzed by using the GraphPad Prism software (GraphPad Software, Inc., San Diego, Calif.), fitted with a one-site, nonlinear binding equation. For inhibition assay the binding of ³⁵S-labeled proteins to 20 or 25 nM of biotinylated human myostatin was performed in the presence of varying concentrations of inhibitor (human activin receptor IIB/Fc chimera (R&D Systems, Minneapolis, Minn.) (0-250 nM); protein 1 (100 nM), peptide 1 (250 nM), protein 2 (50 nM); proteins, produced in E. coli, M17, M7, M29, M21, M1-1, WT F13β2 (500 nM)).
B max,Kd,Binder
41.2%,65 nM,B1
46.4%,57.6 nM,B2
7.77%,34.5 nM,B3
8.07%,16.1 nM,B4
40.2%,14.8 nM,B5
79.6%,20.3 nM,B6
77.8%,21.9 nM,B7
75.9%,27.1 nM,B8
78.3%,19.4 nM,B9
73.7%,17 nM,B10
109%,20.1 nM,B11
52.2%,19.7 nM,B12
68.8%,23.3 nM,B13
68.5%,15.2 nM,B14
50.2%,12 nM,B15
75.1%,19.7 nM,B16
57.2%,11 nM,B17
68.6%,15.8 nM,B18
67.2%,27.1 nM,B19
3.08%,1.47 nM,B20
4.57%,6.04 nM,B21
8.36%,64.1 nM,B22
1.81%,22 nM,B23
52%,38.9 nM,B24
28.5%,26.8 nM,B25
6.14%,9.93 nM,B26
21%,27.3 nM,B27
69.7%,32.1 nM,B28
93%,30.8 nM,B29
